Assay [1] deals with FcγRIIb (UniProt P31994). Briefly: SPR (Protocol 2); ratio of the fold for FcγRIIb to the fold for FcγRIIaR.
In assay [2] the target is FcγRIIb (UniProt P31994). In words: SPR (Protocol 2), antibody captured on immobilised HER2, receptor as analyte.
The next assay addresses FcγRIIaR (UniProt P12318). The assay is described as above.
In assay [3] the target is Soluble FcγRIIaR extracellular domain with C-terminal 10xHis tag (UniProt P12318). Briefly: SPR, antibody captured on HER2, receptor as analyte; affinity fold over wild-type v16463. (In SPR one partner is held on a chip, and binding of the other changes the refractive index at the surface.)
Soluble FcγRIIaR extracellular domain with C-terminal 10xHis tag, sequence (P12318 other isoform, or with tags, fused parts or gaps): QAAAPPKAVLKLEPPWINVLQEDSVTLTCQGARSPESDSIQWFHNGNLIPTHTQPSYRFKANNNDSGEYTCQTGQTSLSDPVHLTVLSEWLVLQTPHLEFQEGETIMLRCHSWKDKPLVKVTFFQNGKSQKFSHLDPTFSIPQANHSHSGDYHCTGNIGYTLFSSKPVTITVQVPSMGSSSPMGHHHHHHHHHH
In assay [4] the target is Soluble FcγRIIb extracellular domain with C-terminal 10xHis tag (UniProt P31994). Described as above.
Soluble FcγRIIb extracellular domain with C-terminal 10xHis tag, sequence (P31994 other isoform, or with tags, fused parts or gaps): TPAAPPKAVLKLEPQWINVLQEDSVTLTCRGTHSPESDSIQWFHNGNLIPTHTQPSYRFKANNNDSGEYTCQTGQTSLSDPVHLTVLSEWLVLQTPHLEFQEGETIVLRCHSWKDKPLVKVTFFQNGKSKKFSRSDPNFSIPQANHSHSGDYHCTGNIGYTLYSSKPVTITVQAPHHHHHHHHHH
Assay [5] has the same target. In words: SPR; IIb-Fold / IIaR-Fold (FcγRIIb over FcγRIIaR).
The target is the same in assay [6]. In words: SPR; IIb/IIaR selectivity against control v27294.
Assay [7] has the same target. Briefly: SPR; FcγRIIb affinity fold against control v27294.

FcγRIIb, sequence (P31994 43-217): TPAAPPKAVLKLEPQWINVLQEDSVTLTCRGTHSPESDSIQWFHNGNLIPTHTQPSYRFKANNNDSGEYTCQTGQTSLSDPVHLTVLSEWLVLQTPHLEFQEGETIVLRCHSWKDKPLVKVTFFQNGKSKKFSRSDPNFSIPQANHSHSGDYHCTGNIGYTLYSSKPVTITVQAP
FcγRIIaR, sequence (P12318 34-217): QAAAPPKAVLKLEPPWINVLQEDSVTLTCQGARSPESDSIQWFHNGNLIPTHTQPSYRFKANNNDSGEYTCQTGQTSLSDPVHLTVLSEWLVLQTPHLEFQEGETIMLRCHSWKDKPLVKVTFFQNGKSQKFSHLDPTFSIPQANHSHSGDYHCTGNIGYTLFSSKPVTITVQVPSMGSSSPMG

With “Variant 19515 (chain A: G236Q / chain B: S239D_H268D), one-armed trastuzumab antibody, Scaffold 2”, the IIb/IIaR Selectivity (IIb-Fold/IIaR-Fold) in the assay with FcγRIIb [1] stood at 0.7. Besides, the IIb-Fold (fold change in affinity over wild-type) (fold over wild-type) in the assay with FcγRIIb [2] was 9.6. Further, in the assay with FcγRIIaR, the IIaR-Fold (fold change in affinity over wild-type) (fold over wild-type) is 14.2.
For “Variant 19507 (chain A: G236E / chain B: G236E), one-armed trastuzumab antibody, Scaffold 2” the same measures were 0.4, 0.8 and 1.8.
Taken in the same sequence, the figures for “Variant 19524 (chain A: G236Q / chain B: G236D_S239D_H268D), one-armed trastuzumab antibody, Scaffold 2” were 1.2, 10.3 and 8.9.
Taken in the same sequence, the figures for “Variant 19503 (chain A: G236N_G237A / chain B: G236N_G237A), one-armed trastuzumab antibody, Scaffold 2” were 4.5, 0.2 and 0.04.
On to “Variant 19504 (chain A: G236N_G237F / chain B: G236N_G237F), one-armed trastuzumab antibody, Scaffold 2”, for which the IIb/IIaR Selectivity (IIb-Fold/IIaR-Fold) in the assay with FcγRIIb [1] was found to be 3.3. Also, the IIb-Fold (fold change in affinity over wild-type) (fold over wild-type) with FcγRIIb [2] is 0.2. In the assay with FcγRIIaR, the IIaR-Fold (fold change in affinity over wild-type) (fold over wild-type) stood at 0.05.
For “Variant 19699 (chain A: G236D_G237F / chain B: G236D_G237F), one-armed trastuzumab antibody, Scaffold 2” the same measures were 7, 2.1 and 0.3.
With “Variant 19531 (chain A: G236D / chain B: G236H_S239D_H268D), one-armed trastuzumab antibody, Scaffold 2”, the IIb/IIaR Selectivity (IIb-Fold/IIaR-Fold) with FcγRIIb [1] was determined as 2.3. Besides, the IIb-Fold (fold change in affinity over wild-type) (fold over wild-type) with FcγRIIb [2] is 3.7. Besides, the IIaR-Fold (fold change in affinity over wild-type) (fold over wild-type) in the assay with FcγRIIaR came out at 1.6.
“Variant 19511 (chain A: G236N_G237F / chain B: S239D_H268D), one-armed trastuzumab antibody, Scaffold 2”: in the assay with FcγRIIb [1], the IIb/IIaR Selectivity (IIb-Fold/IIaR-Fold) is 1.2. In addition, the IIb-Fold (fold change in affinity over wild-type) (fold over wild-type) in the assay with FcγRIIb [2] was found to be 7.1. Further, the IIaR-Fold (fold change in affinity over wild-type) (fold over wild-type) with FcγRIIaR was found to be 5.7.
Take “Variant 19521 (chain A: G236N / chain B: G236D_S239D_H268D), one-armed trastuzumab antibody, Scaffold 2”: in the assay with FcγRIIb [1], the IIb/IIaR Selectivity (IIb-Fold/IIaR-Fold) was determined as 6.8. In the assay with FcγRIIb [2], the IIb-Fold (fold change in affinity over wild-type) (fold over wild-type) is 37.6. In addition, the IIaR-Fold (fold change in affinity over wild-type) (fold over wild-type) with FcγRIIaR amounted to 5.5.
For “Variant 19520 (chain A: none / chain B: G236E_S239D_H268D), one-armed trastuzumab antibody, Scaffold 2” the same measures were 1.5, 26.5 and 17.5.
For “Variant 19517 (chain A: G236D / chain B: S239D_H268D), one-armed trastuzumab antibody, Scaffold 2” the same measures were 2.6, 30.5 and 11.6.
For “Variant 19508 (chain A: none / chain B: S239D_H268D), one-armed trastuzumab antibody, Scaffold 2” the same measures were 1.2, 31.1 and 25.6.
With “Variant 19512 (chain A: none / chain B: G236N_S239D_H268D), one-armed trastuzumab antibody, Scaffold 2”, the IIb/IIaR Selectivity (IIb-Fold/IIaR-Fold) with FcγRIIb [1] stood at 2.5. Further, in the assay with FcγRIIb [2], the IIb-Fold (fold change in affinity over wild-type) (fold over wild-type) stood at 7.9. In the assay with FcγRIIaR, the IIaR-Fold (fold change in affinity over wild-type) (fold over wild-type) was 3.2.
Taken in the same sequence, the figures for “Variant 19526 (chain A: G236D / chain B: G236K_S239D_H268D), one-armed trastuzumab antibody, Scaffold 2” were 3.5, 1.4 and 0.4.
Taken in the same sequence, the figures for “Variant 19527 (chain A: G236N / chain B: G236K_S239D_H268D), one-armed trastuzumab antibody, Scaffold 2” were 6, 1.2 and 0.2.
Taken in the same sequence, the figures for “Variant 16490 (chain A: G236D / chain B: G236D), one-armed trastuzumab antibody, Scaffold 2” were 2.4, 2.1 and 0.9.
Consider “Variant 16493 (chain A: G236N / chain B: G236N), one-armed trastuzumab antibody, Scaffold 2”, for which the IIb/IIaR Selectivity (IIb-Fold/IIaR-Fold) with FcγRIIb [1] turned out to be 3.1. Besides, in the assay with FcγRIIb [2], the IIb-Fold (fold change in affinity over wild-type) (fold over wild-type) is 0.8. Moreover, the IIaR-Fold (fold change in affinity over wild-type) (fold over wild-type) in the assay with FcγRIIaR is 0.3.
Taken in the same sequence, the figures for “Variant 19518 (chain A: none / chain B: G236D_S239D_H268D), one-armed trastuzumab antibody, Scaffold 2” were 2.2, 32.9 and 14.7.
For “Variant 19510 (chain A: G236N_G237A / chain B: S239D_H268D), one-armed trastuzumab antibody, Scaffold 2” the same measures were 3.1, 5.5 and 1.8.
For “Variant 19694 (chain A: none / chain B: G236D_G237F_S239D_H268D), one-armed trastuzumab antibody, Scaffold 2” the same measures were 2.9, 53.5 and 18.2.
In assay [3], “Variant v26717, A_D270W_strat2, one-armed trastuzumab antibody” yielded an IIaR-fold of 3.7 fold. Moreover, the IIb-Fold in assay [4] was determined as 53.5 fold. Moreover, in assay [5], the IIb Selectivity came to 14.5 fold. Further, the IIb Selectivity Improvement wrt Control in assay [6] was determined as 1.1 fold. In assay [7], this substance registered an IIb-Fold wrt Control of 0.6 fold.
Consider “Variant v26712, A_D270A_strat2, one-armed trastuzumab antibody”, for which, in assay [3], the IIaR-fold is 3.8 fold. In assay [4], the IIb-Fold came to 49.9 fold. Moreover, in assay [5], the IIb Selectivity was determined as 13 fold. The substance further gave an IIb Selectivity Improvement wrt Control in assay [6] of 1 fold. The substance also showed an IIb-Fold wrt Control in assay [7] of 0.5 fold.

The record behind these values is US20240294646A1.
